Square brackets hold non-standard residues; d marks the D form. Ends that are not written are not given here. pGlu = O=C1CC[C@@H](C(=O)O)N1

This experiment has as its target T1, mouse ADAMTS7 (Mus musculus, UniProt Q68SA9).
T1 construct: Full-length mouse Adamts7 1-1857 (Uniprot Q68SA9, WT or E373Q catalytic mutant); expressed in transfected cells; host or cells: Human Coronary Artery Smooth Muscle Cells (HCA-SMC, Lonza), adenovirus 50 MOI
T1 sequence (Q68SA9 221-1657): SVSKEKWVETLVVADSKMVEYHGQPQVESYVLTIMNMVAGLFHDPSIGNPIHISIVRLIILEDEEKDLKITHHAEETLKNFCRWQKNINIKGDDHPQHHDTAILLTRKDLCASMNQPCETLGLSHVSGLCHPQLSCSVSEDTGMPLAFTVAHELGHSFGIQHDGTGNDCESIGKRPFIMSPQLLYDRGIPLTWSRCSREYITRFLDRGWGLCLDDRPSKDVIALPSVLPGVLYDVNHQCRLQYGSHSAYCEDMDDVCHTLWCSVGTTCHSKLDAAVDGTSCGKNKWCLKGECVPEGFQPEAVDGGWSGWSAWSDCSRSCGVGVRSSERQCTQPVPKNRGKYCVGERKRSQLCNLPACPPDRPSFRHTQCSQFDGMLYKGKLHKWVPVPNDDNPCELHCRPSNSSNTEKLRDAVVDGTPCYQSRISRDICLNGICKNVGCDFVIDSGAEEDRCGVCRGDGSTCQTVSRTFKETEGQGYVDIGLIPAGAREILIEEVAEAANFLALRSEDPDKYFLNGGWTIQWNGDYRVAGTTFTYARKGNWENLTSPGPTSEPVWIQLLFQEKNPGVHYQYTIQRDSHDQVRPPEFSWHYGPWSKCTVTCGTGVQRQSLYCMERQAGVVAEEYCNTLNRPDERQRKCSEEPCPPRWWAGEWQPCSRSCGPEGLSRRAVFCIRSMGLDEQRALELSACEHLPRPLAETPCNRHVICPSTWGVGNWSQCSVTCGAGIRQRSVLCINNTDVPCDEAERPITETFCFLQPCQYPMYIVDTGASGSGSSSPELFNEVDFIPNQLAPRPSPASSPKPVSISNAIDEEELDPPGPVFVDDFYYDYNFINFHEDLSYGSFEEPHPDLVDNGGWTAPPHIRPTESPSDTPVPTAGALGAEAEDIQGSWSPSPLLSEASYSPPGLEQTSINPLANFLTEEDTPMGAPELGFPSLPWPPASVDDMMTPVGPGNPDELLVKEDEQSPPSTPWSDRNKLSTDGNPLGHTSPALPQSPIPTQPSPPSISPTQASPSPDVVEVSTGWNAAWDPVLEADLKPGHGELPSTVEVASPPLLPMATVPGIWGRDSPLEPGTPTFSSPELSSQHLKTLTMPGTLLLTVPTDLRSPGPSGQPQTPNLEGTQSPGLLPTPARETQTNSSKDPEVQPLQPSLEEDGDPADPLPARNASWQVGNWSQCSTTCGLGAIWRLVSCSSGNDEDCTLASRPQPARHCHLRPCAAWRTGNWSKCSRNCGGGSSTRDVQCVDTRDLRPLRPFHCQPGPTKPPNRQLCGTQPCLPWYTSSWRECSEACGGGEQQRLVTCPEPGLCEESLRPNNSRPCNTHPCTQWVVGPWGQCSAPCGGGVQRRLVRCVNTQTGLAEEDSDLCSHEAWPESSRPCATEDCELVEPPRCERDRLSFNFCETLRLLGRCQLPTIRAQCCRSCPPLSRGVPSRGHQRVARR
The experiment is described as follows: TMT10 TAILS N-terminomics, SMC1 experiment (Ad-mADAMTS7 WT vs EQ vs Luc, technical replicates, trypsin digest). It is filed as cell-based. The following applies: TAILS neo-N-terminal peptide abundance; log fold change, Ad-mADAMTS7 WT over Luc. The text has this:
ADAMTS7 Expression, Cell Culture and Preparation of the Secreted Proteins—Full-length mouse Adamts7 1-1857 (Uniprot Q68SA9, WT or E373Q catalytic mutant) with a carboxyl terminal 3xFLAG tag was used to generate custom adenoviruses as previously described. Adeno-CMV-Luciferase (Ad-Luc) from Vector Biolabs was used as a negative control. Human Coronary Artery Smooth Muscle Cells (HCA-SMC) were obtained from Lonza and expanded in Lonza SmGM-2 media in 15 cm tissue culture plates. Twenty-four hours before media collection, near confluent plates were transduced with 50 MOI adenovirus and switched to Lonza Basal SM media with volumes of 20 ml per 15 cm plate. Expression of the Flag tagged ADAMTS7 was confirmed from the media using western blot and detected using the anti-Flag M2-HRP antibody (Sigma, A8592). Collected media was processed by adding protease inhibitors (1 mM EDTA and 1 mM PMSF) and clarified by 500 g×5 min spin at 4 C to pellet cell debris. Cell media supernatants were then passed through a 0.22 um filter and kept chilled. Processed media was then concentrated 50-100× using 3 kDa Centricon Plus-70 filter unit, spun at 3,500 g×60 min at 4 C. Approximately 10% of the processed, concentrated media was set aside for total secretome proteolytic analysis. The remaining 90% of the processed, concentrated media was buffer exchanged into 50 mM HEPES pH 8.0, 150 mM NaCl (2×50 ml) using the 3 kDa Centricon Plus-70 filter unit and concentrated to >2 mg/ml to serve as input for the TAILS experiment. Secretome and TAILS input samples were stored at −80° C.
For the first experiment, referred to as SMC1, 120 ml of media from 6×15 cm dishes was pooled from each condition (Luc, WT, EQ) and processed to produce three separate inputs for the TAILS experiment. Luc, WT and EQ inputs from the SMC1 experiment were each divided into triplicate 400 ug samples to generate technical replicate TAILS data. For the second experiment, referred to as SMC2, media was processed separately in triplicate for each condition (Luc1, Luc2, Luc3, WT1, WT2, WT3, EQ1, EQ2, EQ3) using 60 ml of media from 3×15 cm dishes for each process replicate. Inputs from the SMC2 experiment used process replicates of 300 ug each to generate TAILS data. The third experiment used input from cultured Human umbilical vein endothelial cells (HUVEC) from Lifeline Cell Technology grown in VascuLife Media and transduced in Lifeline Basal EC (+bFGF2 10 ng/ml). The HUVEC experiment used the same strategy as the SMC2 experiment, with 40 ml of media from 2×15 cm dishes for each process replicate and used 200 ug each to generate TAILS data. Inputs for process replicate experiments were restricted to the lowest concentration from the 9 parallel samples for SMC2 or HUVEC.
TMT10 isotopic labeling and negative selection of non-labeled peptides-Sample preparation was performed based on the TAILS protocol from the Overall lab with some modifications. From a single experiment, nine parallel protein samples in 50 mM HEPES pH 8.0, 150 mM NaCl were separately denatured with guanidinium chloride (Sigma, G4505) to reach a final concentration of 2.5M guanidinium chloride and 250 mM HEPES and incubated at 65° C. for 15 min. Reduction was achieved through addition of tris(2-carboxylethyl) phosphine (TCEP) at a final concentration of […] and incubated at 65° C. for 45 min. Alkylation reaction was performed with addition of iodoacetamide (IAA, Sigma, A3221) to a final concentration of 10 mM IAA for 15 min at room temperature in the dark. Following denaturation, reduction and alkylation steps, ten percent of each of the nine parallel protein samples was removed and combined to serve as a pooled reference. Isobaric tags were added to free amine groups using the TMT10plex Isobaric Mass Tagging Kit (ThermoFisher, 90113) with TMT channels randomly assigned to the nine samples and TMT 131 assigned to the pooled reference. […]
Substance “ACTB_21 (FAGDDAPR; listed as Homo sapiens)” came in with a logFC.mWT.over.Lux of 1.09.
Under “ACTB_105 (LTEAPLNPKANR; listed as Homo sapiens)” stands 1.88.
“ADAM9_69 (VIQAEGKEHIIHLER; listed as Homo sapiens)” displayed a logFC.mWT.over.Lux of 1.45.
As for “AEBP1_37 (FLEGFLSELEPEPR; listed as Homo sapiens)”, the figure is 3.23.
Under “APLP2_579 (ISETPVDVR; listed as Homo sapiens)” stands 2.27; under “CCDC80_66 (LEEPNLQPLQR; listed as Homo sapiens)”, 3.84; under “ECM1_134 (FGDQSHPEPESWNAAQHCQQDR; listed as Homo sapiens)”, 3.02.
Under “EFEMP1_124 (AVAGPEMQTGR; listed as Homo sapiens)” stands 3.84; under “EFEMP1_125 (VAGPEMQTGR; listed as Homo sapiens)”, 1.92; under “EFHD2_67 (QGIGEPQSPSR; listed as Homo sapiens)”, 0.81.
For the substance “EHBP1L1_298 (TAPTPAPR; listed as Homo sapiens)”, the logFC.mWT.over.Lux is given as 1.01.
Under “FBLN2_259 (ALGPPAPVQAKAR; listed as Homo sapiens)” stands 1.29; under “FBLN2_260 (LGPPAPVQAKAR; listed as Homo sapiens)”, 3.46; under “FBN1_29 (LEAGNVKETR; listed as Homo sapiens)”, 4.70.
As for “FBN1_53 (LKGPNVCGSR; listed as Homo sapiens)”, the figure is 4.89.
Under “FLNA_612 (SVEGPSQAKIECDDKGDGSCDVR; listed as Homo sapiens)” stands 1.87; under “FLNA_695 (FTVDAKHGGKAPLR; listed as Homo sapiens)”, 4.79.
Consider “FLNA_1285 (LTQTGGPHVKAR; listed as Homo sapiens)”, for which the logFC.mWT.over.Lux is reported as 4.95.
As for “FN1_36 (MVQPQSPVAVSQSKPGCYDNGKHYQINQQWER; listed as Homo sapiens)”, the figure is 3.73; as for “FN1_40 (QSPVAVSQSKPGCYDNGKHYQINQQWER; listed as Homo sapiens)”, 3.87; as for “FN1_45 (VSQSKPGCYDNGKHYQINQQWER; listed as Homo sapiens)”, 3.70.
As for “FN1_47 ([code q]SKPGCYD[code n]GKHYQINQQWER; not fully specified; listed as Homo sapiens)”, the figure is 3.08.
Under “FN1_281 (SGSGPFTDVR; listed as Homo sapiens)” stands 2.44; under “FN1_282 (GSGPFTDVR; listed as Homo sapiens)”, 3.74; under “FN1_886 (NQESTPVVIQQETTGTPR; listed as Homo sapiens)”, 1.70.
In the case of “FN1_1143 (LTPGVEYVYTIQVLR; listed as Homo sapiens)”, the logFC.mWT.over.Lux is 0.85.
“FN1_1656 (SSSPVTGYR; listed as Homo sapiens)” gave a logFC.mWT.over.Lux of 1.44.
As for “FN1_1731 (FTDVDVDSIKIAWESPQGQVSR; listed as Homo sapiens)”, the figure is 2.59; as for “FN1_2143 (FEEHGFR; listed as Homo sapiens)”, 1.11; as for “FN1_2217 (FQDTSEYIISCHPVGTDEEPLQFR; listed as Homo sapiens)”, 2.41.
As for “GALNT2_31 (LAGGAGGGAGR; listed as Homo sapiens)”, the figure is 0.76; as for “GSN_35 (SQAGAPQGR; listed as Homo sapiens)”, 4.42.
As for “GSN_413 (HIANVER; listed as Homo sapiens)”, the figure is 1.99; as for “HEG1_49 (GAGLELQLER; listed as Homo sapiens)”, 1.72; as for “HLA−C_52 (VDDTQFVR; listed as Homo sapiens)”, 1.14.
In the case of “HSPG2_275 (LLPGSVR; listed as Homo sapiens)”, the logFC.mWT.over.Lux stood at 2.87.
On to “HSPG2_1937 (SSAGQQVAR; listed as Homo sapiens)”, for which the logFC.mWT.over.Lux is recorded as 0.79.
As for “HSPG2_2331 (ANLAYPAGSTQPIR; listed as Homo sapiens)”, the figure is 2.07.
Take “HSPG2_2333 (LAYPAGSTQPIR; listed as Homo sapiens)”: the logFC.mWT.over.Lux came out at 1.93.
Under “HSPG2_2688 (VADSGEYVCR; listed as Homo sapiens)” stands 3.16.
Substance “HSPG2_3250 (SPLPWQHR; listed as Homo sapiens)” yielded a logFC.mWT.over.Lux of 1.00.
As for “HSPG2_3542 (IAHVELADAGQYR; listed as Homo sapiens)”, the figure is 0.60.
As for “HSPG2_3647 ([pGlu]GKVKAFAHLQVPER; listed as Homo sapiens)”, the figure is 0.96.

For the origin of these results see patent publication US20240368668A1, “SUBSTRATES AND BIOMARKERS OF ADAMTS7” (The Broad Institute, Inc., priority 2021, published 2024).
